# Assay: yeast display, Sf9 membrane polyspecificity reagent, FACS + sequencing; frameworks hold sequencing errors
# Method in brief: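 Galactose-induced (36–48 hours) yeast carrying a synthetic nanobody display library were exposed to 10% biotinylated, detergent-solubilized Sf9 membrane reagent at 4 °C for 1 hour. FACS followed streptavidin microbead enrichment, using low and high (top ~1%) gates for expression (anti-HA) and reagent binding (streptavidin). Colony PCR, MiSeq 2 × 250 sequencing and CDR-length filtering followed. Labels for polyreactivity reflect the gate of origin.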
row,Sequence,polyreactivity (PSR sort gate)
1,QVQLVESGGGLVQAGGSLRLSSAASGFILGYNTMGWYRQAPGKESELVAAINLSGASTYYADSVKGRFTISRDNAKNTVYLQMNSLKPEDTAVYYCGVRFYSGPGGYPTTRYYYWGQGTQVTVSS,high polyreactivity
2,QVQLVESGGGLVQAGGSLRLSSAASGFTFAYYAMGWYRQAPGKERELVAAITRGGGRTFYADSVKGRFTISRDNAKNTVYLQMNSLKPEDTAVYYCAAVKDTTNSRGYGYWGQGTQVTVSS,high polyreactivity
3,QVQLVESGGGLVQAGGSLRLSSAASGFTFFYYAMGWYRQAPGKERELVAAISASGGSTSYADSVKGRFTISRDNAKNTVYLQMNSLKPEDTAVYYCAARVYSVRSGYYYWGQGTQVTVSS,high polyreactivity
4,QVQLVESGGGLVQAGGSLRLSSAASGFTFGNNAMVWYRQAPGKEREFVATISRRGGSTYYADSVKGRFTISRDNAKNTVYLLMNSLKPEDTAVYYCAVDRAGIKFAAGYDYWGQGTQVTVSS,high polyreactivity
5,QVQLVESGGGLVQAGGSLRLSSAASGFTFPAYTMGWSRQAPGKERELVAAITSSGGNTYYADSVKGRFTISRDNAKNTVYLQMNSLKPEDTAVYYCAADWDYPYDEAVSKDIDYDYWGQGTQVTVSS,low polyreactivity
6,QVQLVESGGGLVQAGGSLRLSSAASGFTFRRYAMGWYRQAPGKERELVAAISIRGGRTYYADSVNGRFTISRDNAKNTVYLQMNSLKPEDTAVNYCAADGVYALDVESDYWGQGTQVTVSS,high polyreactivity
7,QVQLVESGGGLVQAGGSLRLSSAASGFTFSGYDMGWYRQAPGKERELVAGISSGGVSTTYADSVNGRFTISRDNAKNTVYLQMNSLKQEDTAVYYCNAEWTSFDWGQGTQVTVSS,low polyreactivity
8,QVQLVESGGGLVQAGGSLRLSSAASGFTVKYNTMGSSRQAPGKEREMVAAISWDGTSTYYADSVKGRFTISRDYAKNTVYLQMNSLKPEDTAVYYCATDAVGAWWSYLSGYGYWGQGTQVTVSS,high polyreactivity
9,QVQLVESGGGLVQAGGSLRLSSAASGGIFWYYTMGWYRQAPGKERELVAAISWSGGRTYYADSVKGRFTISRDNAKNTVYLQMNSLKPEDTAVYYCAATFRGVLGWYHYEYWGQGTQVTVSS,high polyreactivity
10,QVQLVESGGGLVQAGGSLRLSSAASGIIFGGSAMGWYRQAPGKEWELVAAISRSGGSTYYADSVKGRFTISRDNPKKTVYLQMNSLKPEDTAVYYCNAVPRRKGFNYWGQGTQVTVSS,high polyreactivity
11,QVQLVESGGGLVQAGGSLRLSSAASGIIFSTYAMGWYRQAPGKERELVAAITSTGSTNYADSVKGRFTISRDNAKNTVYFQMNSLKPEDTAVYYCNAALNVSGHYPNDYWGQGTQVTVSS,low polyreactivity
12,QVQLVESGGGLVQAGGSLRLSSAASGITFPRYAMGWYRQAPGKERELVAAITRRGGSTYYADSVKGRFTISRDNAKNTVYLQMNSLKPEDTAVYYCNTDMRYSYYLPGYDYWGQGTQVTVSS,high polyreactivity
13,QVQLVESGGGLVQAGGSLRLSSAASGITFRGSAMGWYRQAPGKERELVASITNTDSTYYADSVKGRFTISRDNAKHTVYLQMNSLKPEDTAVYYCAARRGRKYGYWGQGTQVTVSS,high polyreactivity
14,QVQLVESGGGLVQAGGSLRLSSAASGITFYLYAMGWYRQAPGKERELVAGISSGGSTNYADSVKGRFTISRDNAKNTVYLQMNSLKPEDTAVYYCAAKLRGYRYGYWGHGTQVTVSS,high polyreactivity
15,QVQLVESGGGLVQAGGSLRLSSAASGITFYYYAMGWYRQAPGKERELVAAINWSGTSTYYADSVKGRFTISRDNAKNTVYLQMNSLKPEDTAVYYCNAERGRSFWWAYDYWGQGTQVTVSS,low polyreactivity
16,QVQLVESGGGLVQAGGSLRLSSAASGLTFHRYAMGWYRQAPGKERELVAGISWSGASTYFADSVKGRFTISRDNAKNTVYLQMNSLKPEDTAVYYCAAVVPGLAYYRHGYWGQGTQVTVSS,high polyreactivity
17,QVQLVESGGGLVQAGGSLRLSSAASGLTFPIYAMVWYTQAPGKEREFVAVITTSGGSTYYADSVKGRFTISRDNAKNTVFLQMNSLKPEDTSVYYCNARRIRHYYWGQGTQVTVSS,high polyreactivity
18,QVQLVESGGGLVQAGGSLRLSSAASGLTLRTYAMGWYRQETGQERELVAAITSGGGSTYYADSVKGRFTISRDNSKNTVYLQLNSLNQEDTAFYYCAAKPVVRYVSFGYDYWGQGTDVTVSS,high polyreactivity
19,QVQLVESGGGLVQAGGSLRLSSAASGRIFFHNAMGWCRQAPGKDRELVAAIRSSTGSTYYADSVKGRFTISRDNAKNTVYLQMNSLKPEDNAVYYCAARSYDKYSRRVWGLGYWGQGTQVTVSS,high polyreactivity
20,QVQLVESGGGLVQAGGSLRLSSAASGRIFRFYAMGWYRQAPGKERELVAAITSGGSTYYADSVKGRFTISRDNAKNTVYLQMNRLKPEDTAVYYCANYYWGQGTQVTVSS,low polyreactivity
21,QVQLVESGGGLVQAGGSLRLSSAASGRIFRYYAMGWYSQAPGKERELVAAISWSGGNSYYADSVKGRFTISRDNAKNTVYLQMNSLKTEDTAVYYCNAYYLPSRYDYWGQGTQVTVSS,high polyreactivity

row,Sequence,polyreactivity (PSR sort gate)
1,QVQLVESGGGLVQAGGSLRLSSAASGRIFSDYAMGWYRQAPGKERELVATITSGDSTNYGDSVKGRFTISRDNAKNTVYLQMNSLKTESTEVYYCNAERFPDYDYWGQGTQVTVSS,low polyreactivity
2,QVQLVESGGGLVQAGGSLRLSSAASGRIFVYNAMGWYRQAPGKERELVAGISWSGARSHYADSVKGRFTISRDNAKKTVYLLMNSLKPEDTAVYYCAAYPQYRSFQYDYWGQGTQVTVSS,high polyreactivity
3,QVQLVESGGGLVQAGGSLRLSSAASGRIFYGYAMGWYRQAPGKERELVAGISYRGARTYYADSVKGRFTISRDNAKNTVYLQMNSLKPEDTAVYYCNAVPYYPFAFGALDYWGQGTQVTVSS,high polyreactivity
4,QVQLVESGGGLVQAGGSLRLSSAASGRIFYHNTMGWYRQAPGKERELVAAIRSGSSTYYADSVKGRFTISRDNAKNTVYLQMNSLKPEDTAVYYCNARPWYSWGVDYDYWGQGTQVTVSS,low polyreactivity
5,QVQLVESGGGLVQAGGSLRLSSAASGRIFYKYVMGWYRQATGKERELVATITSGGSTYYADSVKGRFTISRDNAKNTVYLQMNSLKPEDTAVFYCAARKYYSRAYDYWGQGTQVTVSS,high polyreactivity
6,QVQLVESGGGLVQAGGSLRLSSAASGRILYRYAMGWYRQAPGKESELVAAIYRSGGDTYYADSVKGRFTITRDNAKNTVYLQMNSLIPEDTAVYYCAASFEGSGYRYDYWGQGSQVTVSS,low polyreactivity
7,QVQLVESGGGLVQAGGSLRLSSAASGRNFSRYAMGWYRQAPGKERELVAAINKSGGSTYYADSVKGRFTISRDNAKNTVYLQMNSLKPEDSAFYYCNAVYYWYKGDYWGQGSQVTVSS,high polyreactivity
8,QVQLVESGGGLVQAGGSLRLSSAASGRTFDAYAMGWNRQAPGKERELVAAISGRGGSTTYADSVKGRFTISRDNAKNTVYLQMNSLKPEDTAVYYCAARYPPRFGVVRGYSRSGYWGQGTQVTVSS,high polyreactivity
9,QVQLVESGGGLVQAGGSLRLSSAASGRTFEVYAMGWYRQAPGKERELVATITYSGGITYYADSVKGRFTISRDNAKNTVYLQMNSLKPEDTAVYYPIGVGGDYDYWGQGTQVTVSS,low polyreactivity
10,QVQLVESGGGLVQAGGSLRLSSAASGRTFGFNPMGWYRQAPGKERELVAAISSSSSSTYYADSVKGRFTISRDNAKNTVYLQINSLKPEDTAVYYCAKQEPYPFGGYYEYDYWGQGTQVTVSS,low polyreactivity
11,QVQLVESGGGLVQAGGSLRLSSAASGRTFHANAMGWYRQAPGKERELVARINWSGTSTYYADSVKGRFTISRDNAKNTVYLQMNSLKPEDTAVYYCAAGWIRLYSSLYDYWGQGTQVTVSS,high polyreactivity
12,QVQLVESGGGLVQAGGSLRLSSAASGRTFPSYDMGWYRQAPGKERELVAAISSSGGSTYYADSVKGRFTISRDNAKNTVYLQMNSLKPEDTAVYYCAAATPSGYYYWGQGTQVTVSS,high polyreactivity
13,QVQLVESGGGLVQAGGSLRLSSAASGRTFQYYAMGWYRQAPGKERELVAAIDSSGGSTYYADSVKGRFTISRDNAKNTVYLQMNSLKPEDTAVYYCIAGRYRYYYYGYDYWGQGTQVTVSS,high polyreactivity
14,QVQLVESGGGLVQAGGSLRLSSAASGRTFRYNAMGWYRQAPGKERELVAAIRRGGSTNYADSVKGRITISRDNAKNTVYLQMNSLKPEDTAFYFCAKGHPNDFGYWGQGTQVTVSS,high polyreactivity
15,QVQLVESGGGLVQAGGSLRLSSAASGRTFTRYTMGWYRQAPGKERELVAAIRYSGGSTYYADSVKGRFTISRDNAKNTVYLQMNSLKPEDTAVYYCAARSYYYGFLYRYDYWGQGTQVTVSS,low polyreactivity
16,QVQLVESGGGLVQAGGSLRLSSAASGRTFWRYGMGWYRQAPGKERELVAAITDSGDSTYYADSVKGRFTISRDNAKNTVYLQMNSLKPEDTAVYYCAASDVVFALNGYYPGEDDYWGQGTQVTVSS,low polyreactivity
17,QVQLVESGGGLVQAGGSLRLSSAASGRTFYSNAMGWYRQAPGKERELVAGISKSGGITYYADSVKGRFTISRDNAKNTVYLQMNRLKPEDTAVYYCAARRRGRFYYWGQGTQVTVSS,high polyreactivity
18,QVQLVESGGGLVQAGGSLRLSSAASGSIFGDYAMGWYRQSPGKERELVAAISSDGSTNYADSVKGRFTISRDNAKNTVYLQMNSLKPEDTAVYYCAADTGGWYFYSYYYWGQGTQVTVSS,low polyreactivity
19,QVQLVESGGGLVQAGGSLRLSSAASGSIFRVNAMGWYRQAPGKERELVAAISTSGGNTYYADSVKGRFTISRDNAKNTVYLQMNSLKPEDTAVYYCNAPWSSFNGFTGRYDYWGQGTQVTVSS,low polyreactivity
20,QVQLVESGGGLVQAGGSLRLSSAASGSIFRYNAMGWYRPAPGKERELVAAITSSGGSTYYADSVKGRFTISRDNAKNTVYLQMNSLKPEDTAVYYCAAVRRRVHYPYDYWGQGTQVTVSS,high polyreactivity

# Source: the nanobody polyreactivity screen of Harvey et al. (2022)
